We go through one molecule from patent publication US20040198650A1, “Means for inhibiting proteolytical processing of parkin” (priority 2001, published 2004).

Experiment [1] concerns apoptosis-associated (caspase) cleavage of human Parkin. Briefly: Site directed mutagenesis of Parkin Asp residues: apoptosis-associated cleavage in stably transfected CHO and SH-SY5Y cell lines (T160 immunoblot). The format is cell-based. As to conditions: 200 nanoM okadaic acid for 16 h. The source says:
Site directed mutagenesis of […] 126 in parkin to a glutamate residue reduce the apoptosis associated cleavage of parkin. Caspases are proteinases that always cleave after an Asp residue and FIG. 3 indicated the cleavage takes place within the N-terminal 150 amino acid residues. We mutagenised the parkin expression vector to express human parkin where the Asp in the positions 86 plus 87,106, 115, 126 and 130 were substituted with and Glu. CHO and SHSY5Y cell lines were stably transfected with the expression vectors and used for testing the effect of the mutations on apoptosis-associated parkin cleavage. These cells and the cell lines expressing the normal Parkin were treated with 200 nanoM okadaic acid for 16 h and extracted for T160 immunoblotting. The CHO cell lines are represented in lanes 1-6 and the SH-SY5Y cell lines in lanes 7-12. Wild type Parkin is represented in lanes 1, 2, 7, 8; D126E in lanes 3, 4, 9, 10; D130E in lanes 5, 6, 11, 12. Lanes 1, 3, 5, 7, 9, 11 represent untreated cells and lanes 2, 4, 6, 8, 10, 12 represent okadaic treated cells. The positions of the 51 kDa and 38 kDa Parkin proteins are indicated by the upper and lower left arrows.
Caspases are proteinases that always cleave after an Asp residue. Cell lines were generated where Asp residues were changed to Glu residues to test if this amino acid position might represent the caspase cleavage sites. The Parkin expression vector used for generating the Parkin expressing K3 CHO and Park8 SH-SY5Y cell lines was changed by PCR mediated site directed mutagenesis so the nucleotide No.479 was changed from a cytosine to an adenine (ParkinD126E). The cDNA encoding Parkin was kindly provided by Dr. Mizuno, Juntendo University School of Medicine, Japan. The Parkin cDNA was PCR amplified using the primers: […]
The amplified Parkin cDNA was cloned into the Nhe I and EcoR I site of the pcDNA3.1/Zeo(−) vector and the Parkin cDNA sequence was checked by sequencing. To prepare the D126E mutant, the inventors performed site-directed mutagenesis using the Quickchange Mutagenesis Kit (Stratagene) according to the manufactures instructions. Complementary strands of the oligonucleotide: 5′-[…]-3′ were used for preparing the D126E mutated construct. Parkin vectors containing Parkin mutated for D130E and DD86, 87EE were constructed by analogous techniques. This vector was then transfected into SH-SYSY or CHO cells using FUGENE6 (Boehringer Mannheim) and stably transfected cell lines were selected using 25 microgram Zeocinl ml medium (SH-SY5Y cells) or 300 microgram Zeocin/ml medium (CHO cells). The sequences of the vectors were verified by DNA sequencing. The expression vectors were used to generate the stably transfected DD86, 87EE, D126E and D130E CHO and SH-SY5Y cell lines expressing Parkin protein with the indicated substitutions of amino acids. These cells and the cell lines expressing the normal Parkin were treated with 200 nanoM okadaic acid for 16 h and extracted for T160 immunoblotting. The CHO cell lines are represented in lanes FIG. 5, 1-6 and the SH-SY5Y cell lines in lanes 7-12. Wild type Parkin is represented in lanes 1, 2, 7, 8; D126E in lanes 3, 4, 9, 10; D130E in lanes 5, 6, 11, 12. Lanes 1, 3, 5, 7, 9, 11 represent untreated cells and lanes 2, 4, 6, 8, 10, 12 represent okadaic treated cells. The positions of the 51 kDa and 38 kDa Parkin proteins are indicated by the upper and lower left arrows.
(In general: In western blotting, separated proteins are transferred to a membrane and probed.)

Experiment [2] relates to CHO and SH-SY5Y cell lines. Description: Cytoprotection against mercaptoethanol-induced unfolded protein stress (DAPI count of dead cells). The class given is cell-based. As to conditions: 3 mM mercaptoethanol for 24h. The method, then:
Mercaptoethanol is a known inducer of unfolded protein stress by inhibiting the normal formation of disulfide bonds in the endoplasmic reticulum.
CHO and SH-SY5Y cell lines were cultured expressing wild type Parkin, D126E Parkin and an empty vector with 3 mM mercaptoethanol for 24h. They were stained with DNA binding fluorescent dye DAPI and fixed in ice cold methanol prior to drying.

Entries after “also recorded” stand apart in the source; their conditions may differ.

B1: D126E: human Parkin with Asp 126 substituted by Glu (SEQ ID NO: 4) (protein, listed as Homo sapiens)
chain: MIVFVRFNSSHGFPVEVDSDTSIFQLKEVVAKRQGVPADQLRVIFAGKELRNDWTVQNCDLDQQSIVHIVQRPWRKGQEMNATGGDDPRNAAGGCEREPQSLTRVDLSSSVLPGDSVGLAVILHTESRKDSPPAGSPAGRSIYNSFYVYCKGPCQRVQPGKLRVQCSTCRQATLTLTQGPSCWDDVLIPNRMSGECQSPHCPGTSAEFFFKCGAHPTSDKETSVALHLIATNSRNITCITCTDVRSPVLVFQCNSRHVICLDCFHLYCVTRLNDRQFVHDPQLGYSLPCVAGCPNSLIKELHHFRILGEEQYNRYQQYGAEECVLQMGGVLCPRPGCGAGLLPEPDQRKVTCEGGNGLGCGFAFCRECKEAYHEGECSAVFEASGTTTQAYRVDERAAEQARWEAASKETIKKTTKPCPRCHVPVEKNGGCMHMKCPQPQCRLEWCWNCGCEWNRVCMGDHWFDV
modifications: mat_peptide (1)..() Parkin with a D126E mutation
As to B1, the “Apoptosis-associated cleavage of mutated Parkin compared to wild type” value in experiment [1] is “abrogated the cleavage; also recorded: drastically reduced parkin cleavage”. Moreover, the “Survival of cells expressing the Parkin variant compared to wild type Parkin” value in experiment [2] is “enhanced survival”.
